Measurements taken from the DeepSol protein solubility set.

assay: soluble on expression in E. coli; label from the status in PepcDB or PDB records

| Sequence | soluble on expression in E. coli |
| --- | --- |
| MERREEQPGAAGAGAAPALDFTVENVEKALHQLYYDPNIENKNLAQKWLMQAQVSPQAWHFSWQLLQPDKVPEIQYFGASALHIKISRYWSDIPTDQYESLKAQLFTQITRFASGSKIVLTRLCVALASLALSMMPDAWPCAVADMVRLFQAEDSPVDGQGRCLALLELLTVLPEEFQTSRLPQYRKGLVRTSLAVECGAVFPLLEQLLQQPSSPSCVRQKVLKCFSSWVQLEVPLQDCEALIQAAFAALQDSELFDSSVEAIVNAISQPDAQRYVNTLLKLIPLVLGLQEQLRQAVQNGDMETSHGICRIAVALGENHSRALLDQVEHWQSFLALVNMIMFCTGIPGHYPVNETTSSLTLTFWYTLQDDILSFEAEKQAVYQQVYRPVYFQLVDVLLHKAQFPSDEEYGFWSSDEKEQFRIYRVDISDTLMYVYEMLGAELLSNLYDKLGRLLTSSEEPYSWQHTEALLYGFQSIAETIDVNYSDVVPGLIGLIPRISISNVQLADTVMFTIGALSEWLADHPVMINSVLPLVLHALGNPELSVSSVSTLKKICRECKYDLPPYAANIVAVSQDVLMKQIHKTSQCMWLMQALGFLLSALQVEEILKNLHSLISPYIQQLEKLAEEIPNPSNKLAIVHILGLLSNLFTTLDISHHEDDHEGPELRKLPVPQGPNPVVVVLQQVFQLIQKVLSKWLNDAQVVEAVCAIFEKSVKTLLDDFAPMVPQLCEMLGRMYSTIPQASALDLTRQLVHIFAHEPAHFPPIEALFLLVTSVTLTLFQQGPRDHPDIVDSFMQLLAQALKRKPDLFLCERLDVKAVFQCAVLALKFPEAPTVKASCGFFTELLPRCGEVESVGKVVQEDGRMLLIAVLEAIGGQASRSLMDCFADILFALNKHCFSLLSMWIKEALQPPGFPSARLSPEQKDTFSQQILRERVNKRRVKEMVKEFTLLCRGLHGTDYTADY | soluble |
| MSYTKEQLMLAFSYMSYYGITHTGSAKKNAELILKKMKEALKTWKPFQEDDWEVVWGPAVYTMPFTIFNDAMMYVIQKKGAEGEYVIAIRGTNPVSISDWLFNDFMVSAMKKWPYASVEGRILKISESTSYGLKTLQKLKPKSHIPGENKTILQFLNEKIGPEGKAKICVTGHSKGGALSSTLALWLKDIQGVKLSQNIDISTIPFAGPTAGNADFADYFDDCLGDQCTRIANSLDIVPYAWNTNSLKKLKSIYISEQASVKPLLYQRALIRAMIAETKGKKYKQIKAETPPLEGNINPILIEYLVQAAYQHVVGYPELMGMMDDIPLTDIFEDAIAGLLHHHHHH | soluble |
| DRYCLTAPNYRLKSLQKKASTSAGRITVPRLSVGSVTSRPSTPTLGTPTPQTMSVSTKVGTPMSLTGQRFTVQMPTSQSPAVKASIPATSAVQNVLINPSLIGSKNILITTNMMSSQNTANESSNALKRKR | soluble |
| MAHHHHHHMSARMQFPLSQRRHTNIAVVRYSKNGVKLEIACYKNKVISYRSGTENRLDEVLQVERIFANVARGYLASEKEIQTVFGGEMTEAEAIRYMLDHGELQVAQQERAAEVDEMFKDIAVIISQKCINTKTQRPFPPQVVEQALRSIGAAVKLDQSVKKQALGLIHLLIDSDILPIARANMKIRCTTTSEAALEKLRGWCRDNDADVVSDSVTGKTSDGGSGNFGHALLLLMQPNLFRDLDHFVKEALPSGSTIHMVEAAVTEVGDSDVLLDANAVSLANAQPGRAEEEATMAGSRRAAAAPSSSSAGEVNRGCSDGRGGETGMSSNLGQGADNASNGQHQSDGEGKRGRTGKAKGTTRRGHRGRQSNNSDGDDLLDGSTDGAAEGGLGVDHDIAAGLQRLGLDPSHDLQDDSDDDGGRGRGSRGKKKKNASGTGGGPYQSQGAGGRKAGGGAAAVDDDDNAGKGKKGRKNAKSKKVAAAEKAKPGAEGAFSDSDEELMGNRKQRAKKQQETRMQQGGNDWHEEDFDYGEDEEAEVQLS | soluble |
| MEYCRLDGDTGRLRTEIKHPRLLLFNPGHEMVPEIIGKKPYVPPPVVRSMMRDLGLLPAWLTKSEQDFVFCPEKTLPIPDTHPLKPEARLLQIPDTALPLNDYTLDMWGQSPVWLAALQHRFLWLSTVSAPYYPHELYERSHRCEAARCLEAIGHSEMAAHWFTSINDFLKERYHCFPPDSALLAKLPSSSSGRGLIWLSSSPTDDEIDLLTKALRRAGSFSVEPVLDVRQDWAAEFYSNGKGELYFVGWSRFDTNRWGAYLGNRLATQTDLVAELTQTVGAQAHEEAIASVKDYLRER | not soluble |
| MNNFVKLGLTTGVVLSAIIPYGGVHAATEDLKVETKEDTFRTGNLTAPSQKSAENVVKDALKGKTEQALSSKQVNTESKVNYNVTQSRKSYDGTTLVRLQQTYEGRDVYGYQLTAHINDDGVLTSISGDSAQDLQQQEDLKQPIILSEEDAKKQLFKIYGDNLTFVEEPEIKQVVYVDENTNKATNAYQITFSASTPEYVSGTVLIDAFVGDLLKELVQKLGIQVDSSIVQSATANKSQDPSKLTGTGKDDLGMNRTFGITQRSDGTYTLADYSRGKGIETYTANYKDYNNYRRNVWGYLDDLVTSNSTNFTDPKAVSAHYLATKVYDFYKEKYSRNSFDNNGQKVISVVHGWNTNGKNIGNPKQWFNAFSNGAMLVYGDPIVRAFDVAGHEFTHAVTRNESGLEYAGEAGAINEALSDILGVAVEKYANNGKFNWTMGEQSGRIFRDMKNPSSISSRYPEDYRHYNNLPIDADHDYGGVHTNSSIINKVAYLIASGGNHNGVNVQGIGEDKMFDIFYYANTDELNMTSDFKELKEACIRVAMNLYGKDSLEVQAVQQAFKAAYI | not soluble |
| MSLKEPRWRDPELPEVLAMLRHPVDPVKANAAAYLQHLCFENEGVKRRVRQLRGLPLLVALLDHPRAEVRRRACGALRNLSYGRDTDNKAAIRDCGGVPALVRLLRAARDNEVRELVTGTLWNLSSYEPLKMVIIDHGLQTLTHEVIVPHSGWEREPNEDSKPRDAEWTTVFKNTSGCLRNVSSDGAEARRRLRECEGLVDALLHALQSAVGRKDTDNKSVENCVCIMRNLSYHVHKEVPGADRYQEAEPGPLGSAVGSQRRRRDDASCFGGKKAKEEWFHQGKKDGEMDRNFDTLDLPKRTEAAKGFELLYQPEVVRLYLSLLTESRNFNTLEAAAGALQNLSAGNWMWATYIRATVRKERGLPVLVELLQSETDKVVRAVAIALRNLSLDRRNKDLIGSYAMAELVRNVRNAQAPPRPGACLEEDTVVAVLNTIHEIVSDSLDNARSLLQARGVPALVALVASSQSVREAKAASHVLQTVWSYKELRGTLQKDGWTKARFQSAAATAKGPKEGHHHHHH | not soluble |
| MEIQFLGTGAGQPAKARNVSSLVLKLLDEINEVWMFDCGEGTQRQILETTIKPRKVKKIFITHMHGDHVFGLPGFLSSRAFQANEEQTDLDIYGPVGIKSFVMTALRTSGSRLPYRIHFHEFDESSLGKIMETDKFTVYAEKLDHTIFCMGYRVVQKDLEGTLDAEALKLAGVPFGPLFGKVKNGENVTLEDGREIIAKDYISEPKKGKVITILGDTRKTDASIRLALGADVLVHESTYGKGDERIAKSHGHSTNMQAADIAKQANAKRLLLNHVSARFMGRDCWQMEEDAKTIFSNTHLVRDLEEVGILEHHHHHH | soluble |
| MTGVYADAVLVSVTVGDTVTLHTAGVKNLQPADVKWYFNDIRIAQLDGDLRFNCTDIQCNDRTEIFIDRLRLDRKTGALTIVNITNTHSGVYQLVVIGGGGTIFNVTVHDDPATHYNQVKKNQGESVTFNPGVRRDLIVVLKCLLNNTLIAEISVNQSQICADVQCKERFTDRLKLDNESASLTITNTNITDSGNYTSVILISSDRRFSITREKRFSLTVTSLSSSQPSGGAIAGIVVMLLLLL | not soluble |
| MSERVKVAILGSGNIGTDLMYKLLKNPGHMELVAVVGIDPKSEGLARARALGLEASHEGIAYILERPEIKIVFDATSAKAHVRHAKLLREAGKIAIDLTPAARGPYVVPPVNLKEHLDKDNVNLITCGGQATIPLVYAVHRVAPVLYAEMVSTVASRSAGPGTRQNIDEFTFTTARGLEAIGGAKKGKAIIILNPAEPPILMTNTVRCIPEDEGFDREAVVASVRAMEREVQAYVPGYRLKADPVFERLPTPWGERTVVSMLLEVEGAGDYLPKYAGNLDIMTASARRVGEVFAQHLLGKPVEEVVA | soluble |
| MRAGVREVIDDSSERTLQQVIERAFLRTKGAIIRQKRVFGFVSAKGGDGGSCIAANFAFALSQEPDIHVLAVDISLPFGDLDMYLSGNTHSQDLADISNASDRLDKSLLDTMVQHISPSLDLIPSPATFEKIVNIEPERVSDLIHIAASFYDYIIVDFGASIDHVGVWVLEHLDELCIVTTPSLQSLRRAGQLLKLCKEFEKPISRIEIILNRADTNSRITSDEIEKVIGRPISKRIPQDEDAMQESLLSGQSVLKVAPKSQLSKTIVDWALHLNGVSRPNKRSIWERLKIK | not soluble |
